From patent US20230257470A1 (published 2023)
One block for each binder: values may come before it.

Columns and labels:
human FcγRIIa type R = target: T1, human FcγRIIa type R (human, UniProt P12318 36-217); test: SPR (Biacore), antibody captured, FcγR as analyte, method of Example 14
T1 construct: also called FcγRIIaR; FcγRIIa(R)
T1 chain: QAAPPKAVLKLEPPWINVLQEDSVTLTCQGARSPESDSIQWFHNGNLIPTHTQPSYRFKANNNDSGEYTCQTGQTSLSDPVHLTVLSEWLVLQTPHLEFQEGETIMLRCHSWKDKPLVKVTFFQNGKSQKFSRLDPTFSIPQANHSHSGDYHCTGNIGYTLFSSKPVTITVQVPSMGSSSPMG

human FcγRIIb [1] = target: T2, human FcγRIIb (human, UniProt P31994 43-217, limits assumed); test: ratio of SPR KD values: KD for FcγRIIaH divided by KD for FcγRIIb
T2 construct: Whole entry (AAI46679.1); also called FcγIIB; FcgRIIb
T2 sequence: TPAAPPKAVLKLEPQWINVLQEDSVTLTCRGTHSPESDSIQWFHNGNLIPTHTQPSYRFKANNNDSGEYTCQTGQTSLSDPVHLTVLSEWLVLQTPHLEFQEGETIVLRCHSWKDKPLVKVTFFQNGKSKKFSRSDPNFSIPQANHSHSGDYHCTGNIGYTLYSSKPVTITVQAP

mouse FcγRIII = target: T3, mouse FcγRIII (mouse, UniProt P08508 31-215); test: SPR, antibody captured by Protein L, mouse FcγR injected, pH 7.4
T3 construct: Bought protein; construct not described; also called mFcgRIII
T3 sequence (looked up): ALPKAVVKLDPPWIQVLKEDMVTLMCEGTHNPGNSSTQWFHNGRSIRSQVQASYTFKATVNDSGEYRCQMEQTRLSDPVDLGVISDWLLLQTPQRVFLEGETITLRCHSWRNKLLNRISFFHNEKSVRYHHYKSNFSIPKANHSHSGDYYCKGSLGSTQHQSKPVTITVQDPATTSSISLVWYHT

mouse FcγRIIb = target: T4, mouse FcγRIIb (mouse, UniProt P08101 40-217, limits assumed); test: as above
T4 construct: Bought protein; construct not described; also called mFcgRIIb
T4 sequence (looked up): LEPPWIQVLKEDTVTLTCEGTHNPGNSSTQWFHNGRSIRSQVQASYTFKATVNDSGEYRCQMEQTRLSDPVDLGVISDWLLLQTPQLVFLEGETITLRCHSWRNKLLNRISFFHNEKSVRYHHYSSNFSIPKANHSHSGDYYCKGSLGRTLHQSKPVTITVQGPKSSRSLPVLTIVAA

mouse FcγRI = target: T5, mouse FcγRI (mouse, UniProt P26151 25-297); test: as above
T5 construct: Bought protein; construct not described; also called mFcgRI
T5 sequence (looked up): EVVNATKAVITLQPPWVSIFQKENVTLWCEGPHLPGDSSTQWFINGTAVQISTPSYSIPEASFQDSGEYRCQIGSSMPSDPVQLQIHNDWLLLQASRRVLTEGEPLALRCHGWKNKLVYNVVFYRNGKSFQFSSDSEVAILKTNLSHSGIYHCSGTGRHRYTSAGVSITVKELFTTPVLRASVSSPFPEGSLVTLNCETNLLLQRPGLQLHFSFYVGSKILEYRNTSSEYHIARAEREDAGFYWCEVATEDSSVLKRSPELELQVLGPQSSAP

human FcγRIIIa(F) = target: T6, human FcγRIIIa(F) (human, UniProt P08637 17-208, limits assumed); test: SPR, antibody captured, FcγR as analyte, capture-corrected binding amount
T6 construct: the assay used allotype F; also called FcgRIIIaF; FcγRIIIa allotype F158
T6 sequence (P08637 other isoform, or with tags, fused parts or gaps limits assumed): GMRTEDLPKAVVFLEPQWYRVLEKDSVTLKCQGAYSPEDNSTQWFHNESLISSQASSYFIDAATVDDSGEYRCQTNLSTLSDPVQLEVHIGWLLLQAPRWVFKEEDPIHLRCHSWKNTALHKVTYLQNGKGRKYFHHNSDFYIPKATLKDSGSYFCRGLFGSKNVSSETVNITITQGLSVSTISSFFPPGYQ

human FcγRIIb [2] = target: T7, human FcγRIIb (human, UniProt P31994 43-217, limits assumed); test: as above
T7 construct: also called FcgRIIb; FcγIIB
T7 sequence: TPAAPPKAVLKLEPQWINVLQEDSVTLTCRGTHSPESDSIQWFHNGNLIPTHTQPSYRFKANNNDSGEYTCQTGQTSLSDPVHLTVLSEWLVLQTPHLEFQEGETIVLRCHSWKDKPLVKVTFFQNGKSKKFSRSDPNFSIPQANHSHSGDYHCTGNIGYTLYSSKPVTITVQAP

human FcγRIIa(H) [3] = target: T8, human FcγRIIa(H) (human, UniProt P12318 36-217); test: SPR (Biacore), captured antibody, FcγR analyte
T8 construct: also called FcgRIIaH; FcγRIIa type H
T8 sequence: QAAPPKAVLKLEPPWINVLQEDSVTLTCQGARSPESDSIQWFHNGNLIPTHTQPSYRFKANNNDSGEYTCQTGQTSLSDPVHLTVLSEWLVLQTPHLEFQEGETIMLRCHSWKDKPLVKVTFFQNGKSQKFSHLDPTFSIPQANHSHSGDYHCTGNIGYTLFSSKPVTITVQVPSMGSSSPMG

human FcγRIIa(R) = target: T9, human FcγRIIa(R) (human, UniProt P12318 36-217); test: SPR, captured antibody, FcγR analyte; bound amount per captured antibody
T9 construct: also called FcgRIIaR; FcγRIIa type R
T9 chain: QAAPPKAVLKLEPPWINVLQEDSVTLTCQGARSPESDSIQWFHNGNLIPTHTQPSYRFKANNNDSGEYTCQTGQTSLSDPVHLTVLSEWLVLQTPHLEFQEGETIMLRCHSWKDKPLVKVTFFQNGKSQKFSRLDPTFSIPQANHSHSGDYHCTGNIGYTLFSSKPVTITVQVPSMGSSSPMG

human FcγRIIa(H) [4] = target: T10, human FcγRIIa(H) (human, UniProt P12318 36-217); test: SPR, antibody captured, FcγR as analyte, capture-corrected binding amount
T10 construct: also called FcgRIIaH; FcγRIIa type H
T10 sequence: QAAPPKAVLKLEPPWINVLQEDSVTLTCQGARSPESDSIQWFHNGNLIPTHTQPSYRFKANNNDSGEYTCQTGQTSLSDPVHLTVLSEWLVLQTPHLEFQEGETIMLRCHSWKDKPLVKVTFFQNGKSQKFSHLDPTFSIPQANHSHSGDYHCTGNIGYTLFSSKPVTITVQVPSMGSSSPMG

B5: GpH7-B3 L328R/GpL16-k0 (antibody, human IgG1)
heavy: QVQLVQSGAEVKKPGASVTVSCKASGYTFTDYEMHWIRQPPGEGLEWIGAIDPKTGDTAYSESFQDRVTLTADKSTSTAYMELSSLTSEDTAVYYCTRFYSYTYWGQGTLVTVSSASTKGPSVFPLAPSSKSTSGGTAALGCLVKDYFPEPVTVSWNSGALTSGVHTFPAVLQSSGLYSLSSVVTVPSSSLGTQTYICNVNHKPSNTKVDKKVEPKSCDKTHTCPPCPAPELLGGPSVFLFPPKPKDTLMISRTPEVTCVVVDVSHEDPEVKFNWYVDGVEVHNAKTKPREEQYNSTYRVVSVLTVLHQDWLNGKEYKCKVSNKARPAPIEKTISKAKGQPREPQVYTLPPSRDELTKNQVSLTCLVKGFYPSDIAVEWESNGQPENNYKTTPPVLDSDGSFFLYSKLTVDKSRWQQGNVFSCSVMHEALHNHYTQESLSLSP
light: DIVMTQSPLSLPVTPGEPASISCQASESLVHSNRNTYLHWYLQKPGQSPQLLIYKVSNRFSGVPDRFSGSGSGTDFTLKISRVEAEDVGVYYCSQNTHVPPTFGQGTKVEIE
notes: Anti-glypican-3 human IgG1 with B3 constant region (G1d with K439E); also called B3 variant; copies: 2 + 2
relative binding activity (human FcγRIIIa(F)): 1 % of GpH7-B3/GpL16-k0
relative binding activity (human FcγRIIb [2]): 3 % of GpH7-B3/GpL16-k0

B7: GpH7-B3 L234G/GpL16-k0 (antibody, human IgG1)
heavy: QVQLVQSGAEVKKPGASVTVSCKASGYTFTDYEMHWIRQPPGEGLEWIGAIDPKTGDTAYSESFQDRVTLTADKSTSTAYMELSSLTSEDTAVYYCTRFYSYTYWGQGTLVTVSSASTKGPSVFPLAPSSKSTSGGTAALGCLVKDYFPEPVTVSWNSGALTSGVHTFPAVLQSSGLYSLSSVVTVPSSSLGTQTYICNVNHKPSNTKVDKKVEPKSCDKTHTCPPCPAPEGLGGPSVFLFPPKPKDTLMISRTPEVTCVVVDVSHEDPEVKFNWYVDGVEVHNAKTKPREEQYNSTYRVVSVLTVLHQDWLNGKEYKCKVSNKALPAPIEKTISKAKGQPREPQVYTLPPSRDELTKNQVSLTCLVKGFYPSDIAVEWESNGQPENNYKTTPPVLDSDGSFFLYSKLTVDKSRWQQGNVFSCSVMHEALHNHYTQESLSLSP
light: DIVMTQSPLSLPVTPGEPASISCQASESLVHSNRNTYLHWYLQKPGQSPQLLIYKVSNRFSGVPDRFSGSGSGTDFTLKISRVEAEDVGVYYCSQNTHVPPTFGQGTKVEIE
notes: anti-glypican-3 IgG1; B3 constant region (G1d with K439E); also called B3 variant; copies: 2 + 2
relative binding activity (human FcγRIIa(R)): 9 % of GpH7-B3/GpL16-k0

B8: GpH7-B3 N325Y/GpL16-k0 (antibody, human IgG1)
heavy: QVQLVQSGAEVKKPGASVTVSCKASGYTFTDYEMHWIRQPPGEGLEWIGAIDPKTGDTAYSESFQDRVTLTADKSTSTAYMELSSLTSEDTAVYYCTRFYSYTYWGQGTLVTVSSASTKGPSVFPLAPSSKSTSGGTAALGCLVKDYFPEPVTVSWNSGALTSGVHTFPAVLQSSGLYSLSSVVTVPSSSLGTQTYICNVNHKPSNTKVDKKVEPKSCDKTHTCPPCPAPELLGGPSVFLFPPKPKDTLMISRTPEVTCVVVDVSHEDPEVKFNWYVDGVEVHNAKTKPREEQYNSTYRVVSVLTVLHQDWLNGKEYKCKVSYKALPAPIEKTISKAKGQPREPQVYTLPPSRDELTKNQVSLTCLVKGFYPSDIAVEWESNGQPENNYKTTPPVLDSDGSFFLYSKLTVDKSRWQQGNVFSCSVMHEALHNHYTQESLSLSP
light: DIVMTQSPLSLPVTPGEPASISCQASESLVHSNRNTYLHWYLQKPGQSPQLLIYKVSNRFSGVPDRFSGSGSGTDFTLKISRVEAEDVGVYYCSQNTHVPPTFGQGTKVEIE
notes: as for B5
relative binding activity (human FcγRIIa(H) [4]): -9 % of GpH7-B3/GpL16-k0

B10: GpH7-B3 G236K/GpL16-k0 (antibody, human IgG1)
heavy: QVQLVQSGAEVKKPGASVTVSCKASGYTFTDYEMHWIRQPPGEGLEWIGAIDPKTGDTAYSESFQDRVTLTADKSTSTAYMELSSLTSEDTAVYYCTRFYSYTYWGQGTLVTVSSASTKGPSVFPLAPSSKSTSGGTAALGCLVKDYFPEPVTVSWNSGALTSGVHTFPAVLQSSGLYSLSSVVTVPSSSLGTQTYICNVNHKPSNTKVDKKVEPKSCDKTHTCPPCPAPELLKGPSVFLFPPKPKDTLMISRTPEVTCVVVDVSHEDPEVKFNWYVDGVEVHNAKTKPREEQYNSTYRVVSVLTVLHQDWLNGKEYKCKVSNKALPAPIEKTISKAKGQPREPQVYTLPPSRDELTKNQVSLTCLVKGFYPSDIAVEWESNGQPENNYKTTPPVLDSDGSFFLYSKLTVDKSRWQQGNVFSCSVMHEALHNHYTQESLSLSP
light: DIVMTQSPLSLPVTPGEPASISCQASESLVHSNRNTYLHWYLQKPGQSPQLLIYKVSNRFSGVPDRFSGSGSGTDFTLKISRVEAEDVGVYYCSQNTHVPPTFGQGTKVEIE
notes: as for B7
relative binding activity (human FcγRIIa(R)): 9 % of GpH7-B3/GpL16-k0

B11: GpH7-B3 P329Q/GpL16-k0 (antibody, human IgG1)
heavy: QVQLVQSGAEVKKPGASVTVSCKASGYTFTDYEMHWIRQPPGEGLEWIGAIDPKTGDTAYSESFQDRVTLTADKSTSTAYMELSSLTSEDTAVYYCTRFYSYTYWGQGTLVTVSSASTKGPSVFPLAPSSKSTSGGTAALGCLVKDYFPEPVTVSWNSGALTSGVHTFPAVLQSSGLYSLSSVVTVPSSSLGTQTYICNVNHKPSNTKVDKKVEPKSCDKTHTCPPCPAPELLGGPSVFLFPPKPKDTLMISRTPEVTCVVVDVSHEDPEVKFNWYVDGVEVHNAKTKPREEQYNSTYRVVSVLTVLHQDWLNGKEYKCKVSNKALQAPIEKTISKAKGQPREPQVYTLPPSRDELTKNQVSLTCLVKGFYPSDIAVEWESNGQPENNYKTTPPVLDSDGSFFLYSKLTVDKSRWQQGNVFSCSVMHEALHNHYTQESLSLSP
light: DIVMTQSPLSLPVTPGEPASISCQASESLVHSNRNTYLHWYLQKPGQSPQLLIYKVSNRFSGVPDRFSGSGSGTDFTLKISRVEAEDVGVYYCSQNTHVPPTFGQGTKVEIE
notes: as for B5
relative binding activity (human FcγRIIIa(F)): 1 % of GpH7-B3/GpL16-k0
relative binding activity (human FcγRIIb [2]): 2 % of GpH7-B3/GpL16-k0

Other lines, results leading:

Kd (human FcγRIIa type R): 1400 nM
B1: IL6R-PD082/IL6R-L (antibody, human IgG1)
heavy: QVQLQESGPGLVKPSETLSLTCAVSGHSISHDHAWSWVRQPPGEGLEWIGFISYSGITNYNPSLQGRVTISRDNSKNTLYLQMNSLRAEDTAVYYCARSLARTTAMDYWGEGTLVTVSSASTKGPSVFPLAPSSKSTSGGTAALGCLVKDYFPEPVTVSWNSGALTSGVHTFPAVLQSSGLYSLSSVVTVPSSSLGTQTYICNVNHKPSNTKVDKKVEPKSCDKTHTCPPCPAPELLGFDSVFLFPPKPKDTLYISRTPEVTCVVVDVSHEDPEVKFNWYVDGVEVHNAKTKPREEQYNSTYRVVSVLTVLHQDWLNGKEYKCKVSNKALPAPIEKTISKAKGQPREPQVYTLPPSRDELTKNQVSLTCLVKGFYPSDIAVEWESNGQPENNYKTTPPVLDSDGSFFLYSKLTVDKSRWQQGNVFSCSVMHEALHYHYTQKSLSLSP
light: DIQMTQSPSSLSASVGDRVTITCRASQDISSYLNWYQQKPGKAPKLLIYYTSRLHSGVPSRFSGSGSGTDFTFTISSLQPEDIATYYCQQGNTLPYTFGQGTKVEIK
notes: Alteration is counted against IL6R-F11; also called G237F/P238D; P238D/G237F

KD(IIaH)/KD(IIb) (human FcγRIIb [1]): 4.71
B2: IL6R-BP143/IL6R-L (antibody, human IgG1, name in EU numbering)
heavy: QVQLQESGPGLVKPSETLSLTCAVSGHSISHDHAWSWVRQPPGEGLEWIGFISYSGITNYNPSLQGRVTISRDNSKNTLYLQMNSLRAEDTAVYYCARSLARTTAMDYWGEGTLVTVSSASTKGPSVFPLAPSSKSTSGGTAALGCLVKDYFPEPVTVSWNSGALTSGVHTFPAVLQSSGLYSLSSVVTVPSSSLGTQTYICNVNHKPSNTKVDKKVEPKSCDKTHTCPPCPAPEYLGGDSVFLFPPKPKDTLMISRTPEVTCVVVDVSHEDPEVKFNWYVDGVEVHNAKTKPREEQYNSTYRVVSVLTVLHQDWLNGKEYKCKVSNAALPAPIEKTISKAKGQPREPQVYTLPPSRDELTKNQVSLTCLVKGFYPSDIAVEWESNGQPENNYKTTPPVLDSDGSFFLYSKLTVDKSRWQQGNVFSCSVMHEALHNHYTQESLSLSP
light: DIQMTQSPSSLSASVGDRVTITCRASQDISSYLNWYQQKPGKAPKLLIYYTSRLHSGVPSRFSGSGSGTDFTFTISSLQPEDIATYYCQQGNTLPYTFGQGTKVEIK
notes: Alterations introduced into IL6R-B3 (EU numbering)

binding result (mouse FcγRIII): no binding
binding result (mouse FcγRIIb): no binding
binding result (mouse FcγRI): no binding
B3: VH3/L(WT)-IgG1-F1009 (antibody)
heavy: QVQLQESGPGLVKPSETLSLTCAVSGHSISHDHAWSWVRQPPGEGLEWIGFISYSGITNYNPSLQGRVTISRDNSKNTLYLQMNSLRAEDTAVYYCARSLARTTAMDYWGEGTLVTVSSASTKGPSVFPLAPSSKSTSGGTAALGCLVKDYFPEPVTVSWNSGALTSGVHTFPAVLQSSGLYSLSSVVTVPSSSLGTQTYICNVNHKPSNTKVDKKVEPKSCDKTHTCPPCPAPELRGGPKVFLFPPKPKDVLYISRTPEVTCVVVDVSHEDPEVKFNWYVDGVEVHNAKTKPREEQYNSTYRVVSVLQPLHADWLNGKEYKCKVSNKALPAPIEKTISKAKGQPREPQVYTLPPSRDELTKNQVSLTCLVKGFYPSDIAVEWESNGQPENNYKTTPPVLDSDGSFFLYSKLTVDKSRWQQGNVFSCSVMHEALHYHVTQKSLSLSP
light: not shown
notes: L235R/S239K variant of VH3-IgG1-F947 with L(WT)-CK; also called VH3-IgG1-F1009; copies: 2 + 2

KD(IIaH)/KD(IIb) (human FcγRIIb [1]): 77.7
B4: IL6R-BP147/IL6R-L (antibody, human IgG1, name in EU numbering)
heavy: QVQLQESGPGLVKPSETLSLTCAVSGHSISHDHAWSWVRQPPGEGLEWIGFISYSGITNYNPSLQGRVTISRDNSKNTLYLQMNSLRAEDTAVYYCARSLARTTAMDYWGEGTLVTVSSASTKGPSVFPLAPSSKSTSGGTAALGCLVKDYFPEPVTVSWNSGALTSGVHTFPAVLQSSGLYSLSSVVTVPSSSLGTQTYICNVNHKPSNTKVDKKVEPKSCDKTHTCPPCPAPEYLGDDSVFLFPPKPKDTLMISRTPEVTCVVVDVSHEDPEVKFNWYVDGVEVHNAKTKPREEQYNSTYRVVSVLTVLHQDWLNGKEYKCKVSNAALPKPIEKTISKAKGQPREPQVYTLPPSRDELTKNQVSLTCLVKGFYPSDIAVEWESNGQPENNYKTTPPVLDSDGSFFLYSKLTVDKSRWQQGNVFSCSVMHEALHNHYTQESLSLSP
light: DIQMTQSPSSLSASVGDRVTITCRASQDISSYLNWYQQKPGKAPKLLIYYTSRLHSGVPSRFSGSGSGTDFTFTISSLQPEDIATYYCQQGNTLPYTFGQGTKVEIK
notes: as for B2

relative binding activity (human FcγRIIa(H) [3]): 1 % of GpH7-B3/GpL16-k0
B6: GpH7-B3 variant V266R/GpL16-k0 (antibody, human IgG1)
heavy: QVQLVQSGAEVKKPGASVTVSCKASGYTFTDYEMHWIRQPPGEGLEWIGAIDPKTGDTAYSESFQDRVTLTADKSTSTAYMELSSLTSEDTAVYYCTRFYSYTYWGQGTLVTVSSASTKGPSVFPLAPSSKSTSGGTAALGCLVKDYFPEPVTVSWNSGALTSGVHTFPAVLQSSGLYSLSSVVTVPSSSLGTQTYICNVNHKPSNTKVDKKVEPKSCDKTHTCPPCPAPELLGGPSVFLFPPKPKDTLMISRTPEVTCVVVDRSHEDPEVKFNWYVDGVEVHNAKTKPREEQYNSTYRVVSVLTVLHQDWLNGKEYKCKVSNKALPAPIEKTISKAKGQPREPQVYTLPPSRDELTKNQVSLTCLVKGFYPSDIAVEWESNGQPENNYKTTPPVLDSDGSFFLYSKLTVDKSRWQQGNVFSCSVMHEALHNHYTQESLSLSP
light: DIVMTQSPLSLPVTPGEPASISCQASESLVHSNRNTYLHWYLQKPGQSPQLLIYKVSNRFSGVPDRFSGSGSGTDFTLKISRVEAEDVGVYYCSQNTHVPPTFGQGTKVEIE
notes: anti-glypican-3 IgG1; alteration introduced into GpH7-B3; copies: 2 + 2

relative binding activity (human FcγRIIa(H) [3]): 1 % of GpH7-B3/GpL16-k0
B9: GpH7-B3 variant V266K/GpL16-k0 (antibody, human IgG1)
heavy: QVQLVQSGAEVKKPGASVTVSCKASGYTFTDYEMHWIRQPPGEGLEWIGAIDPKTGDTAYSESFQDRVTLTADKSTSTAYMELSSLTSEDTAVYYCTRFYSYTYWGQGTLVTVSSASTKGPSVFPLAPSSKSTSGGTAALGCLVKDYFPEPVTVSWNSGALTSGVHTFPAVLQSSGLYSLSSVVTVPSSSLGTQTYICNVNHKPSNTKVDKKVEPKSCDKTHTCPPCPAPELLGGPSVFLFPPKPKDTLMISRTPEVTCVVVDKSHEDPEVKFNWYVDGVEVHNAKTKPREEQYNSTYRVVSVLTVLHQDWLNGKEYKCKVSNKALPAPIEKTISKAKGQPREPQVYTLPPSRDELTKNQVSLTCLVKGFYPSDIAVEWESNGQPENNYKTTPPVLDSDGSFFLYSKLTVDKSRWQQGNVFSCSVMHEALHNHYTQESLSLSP
light: DIVMTQSPLSLPVTPGEPASISCQASESLVHSNRNTYLHWYLQKPGQSPQLLIYKVSNRFSGVPDRFSGSGSGTDFTLKISRVEAEDVGVYYCSQNTHVPPTFGQGTKVEIE
notes: as for B6
